{"source": "the DeepSol protein solubility set"}
{"experiment": "soluble on expression in E. coli; label from the status in PepcDB or PDB records"}
{"sequence": "MSLAKHIVELTDALSNKIAAGEVVERPASVVKELVENAIDAGSTVIDILVEEAGLNKITIIDNGSGIEEEDVATAFLRHATSKIKNEADLFRVHTLGFRGEALPSIASVSHLEMETSTGEAKGTTISLEGGKIIEQKSGHARKGTQIEVSQLFFNTPARLKYLKSLPTELGNITDILNRLALAHPDISFRFSHNGKPLLQTNGNGELRQVIAAIYGVSIAKKSVPVKAESLDFKISGYAVLPEVNRSNRNYISTIINGRFIKNFALVKAIQEGYHTLLPIGRFPIIVLQIEMDPIIVDVNVHPAKLEVRLSKEKELGQLISQMIKETFHKLQLIPDGEISKEGHHHHHH", "soluble on expression in E. coli": "soluble"}
{"sequence": "MSLAKLTINDIAKKAKTSKTTVSFYLNGKFDKMSPDTKRRIEQVIEETNYSPNIMARSLKLKKSNLIGVVVADITNPFSSNIVKGIGEITRRKGYQILVGSTNLDYYNEEEYFKKMLDMGVDGFIVQPTKNFDKLYPAIKNKGKKIVVLDSVSSRYTGKWVKTNNYEIVYEAVLKLAEKGYEEFILVTEAPDKLAARMERKTGFEDAVNKINCKSFIEIINENTEVDEIAEMLKINISNNKKTVIFAINGKILQKVFKAVKMEGFDVPNHVGIIGFDKWDWTMYASPSVTTIDQPTYEEGKYAAKMLIEMIEENDDFYKSEVFDCNINWEESTDEGHHHHHH", "soluble on expression in E. coli": "soluble"}
{"sequence": "MSLALDGKSLSGFSHVHVGSLYNAEALEKSVEEMQVETSRRGYAFAVVRPRGDRNFDAHTVSIVFAIDEGPRTYIERINIRGNTRTRDYVIRREFDISEGDAYNRSLVDRAERRLKNLDFFKTVKITTEPGSSSDRVILDVDVEDKSTGDFSVSGGYSTTQGALAEVSVSERNLLGRGLYAKASVQYGQYARGYSLSFVEPYLLDYRVALGLDFYQREQLANQYISYNIKTLGFSPRLGFGLREDLTLQLRYSIFRQEIGLPTSLRNCNNNIGGPNYNPSPAFLNSIGQFNPNNPTLGCYSDGEASLPIRQELGGQTLTSMLGYTLTYNTLDNNKNPTDGLLIDFRQDFAGVGGDVKYLKTAIDAKYYQPLVSDIVGLVHLQGGILNNVGAYAGQNGIRMLDNFQMGPNLVRGFAPNGIGPRDINFLSTMDALGGTQYWGASVELQMPFWFLPKEVGLKGAVYADAGSLWGYKGPTSNLATNEFNAPGCMPSTSRSNPGTCAGLQFDDTNVVRTSVGVGLIWQSPFGPLRFDYAVPITKGKYDRVQEFRFGGGTTEGHHHHHH", "soluble on expression in E. coli": "not soluble"}
{"sequence": "MSLALLNVDKLSVHFGDESAPFRAVDRISYSVKQGEVVGIVGESGSGKSVSSLAIMGLIDYPGRVMAEKLEFNGQDLQRISEKERRNLVGAEVAMIFQDPMTSLNPCYTVGFQIMEAIKVHQGGNKSTRRQRAIDLLNQVGIPDPASRLDVYPHQLSGGMSQRVMIAMAIACRPKLLIADEPTTALDVTIQAQIIELLLELQQKENMALVLITHDLALVAEAAHKIIVMYAGQVVETGDAHAIFHAPRHPYTQALLRALPEFAQEGHHHHHH", "soluble on expression in E. coli": "not soluble"}
{"sequence": "MSLANIKEIARLANVSVSTVSRVLNHHPYVSEEKRKLVHQVMKELDYTPNRTAIDLIRGKTHTVGVILPYSDHPCFDKIVNGITKAAFQHEYATTLLPTNYNPDIEIKYLELLRTKKIDGLIITSRANHWDSILAYQEYGPVIACEDTGDIDVPCAFNDRKTAYAESFRYLKSRGHENIAFTCVREADRSPSTADKAAAYKAVCGRLEDRHMLSGCNDMNDGELAAEHFYMSGRVPTAIYANSDEVAAGIHLFAKKNNWDVEIIGEGNTSISRVLGFPSLDLNLEQLGIAAFSLFLQDEPADIKIQHKFKKKAEGHHHHHH", "soluble on expression in E. coli": "soluble"}
{"sequence": "MSLANLYLMRSRSDELNTIISTNLLKNYSKIYKNIAIYCPVIYIHRVPVLQGWLEEFNINQTVKSAYGFTFREAMEEFSKDPHNFFNVILEEYEELKRKYDFVLVNSFCEFGILDGFDLSIKLAKNLNTPIAAIINDEDKLIAQKYFDHALDGRNYVLINENFNFEEVQKLKEYDFITPHRFKYELIKQSIKNKKTVVLPESNDERILKAAEILLKSKVVDLILLGDEEKIKQDATRLSLDLSAMQIMNPLNSEYNQKFTSILYEARKSKGMSLEEAKMLVQDKTYFGTLLIHTGKADAMVSGASTTTAETIRPALQLIKTKEGISSVSGIFFMGLEDQVLAFADCAVNPSPTAEQLATSAYVSAMTAKSFGLEPRIALLSYSSGDSGKGESVDLVKEALKIAKEKYPELNIDGPMQFDCAYDPKTAAKKMPNSKIAGHANVYIFPDLNAANICYKAVQRTANALAIGPILQGLKKPVNDLSRGCLVDDIVDTVILSAIQAQEGHHHHHH", "soluble on expression in E. coli": "soluble"}
{"sequence": "MSLAQGRQVIGLDIGTTSTIAILVRLPDTVVAVASRPTTLSSPHPGWAEEDPAQWWDNARAVLAELKTTAGESDWRPGGICVTGMLPAVVLLDDRGAVLRPSIQQSDGRCGDEVAELRAEVDSEAFLARTGNGVTQQLVTAKLRWIERHEPAVFGAIATVCGSYDYINMLLTGERVVDRNWALEGGFIDLASGTVEADLVALAHIPPSAVPPAHPTHRVLGAVTAEAAALTGLPTGLPVYGGAADHIASALAAGITRPGDVLLKFGGAGDIIVASATAKSDPRLYLDYHLVPGLYAPNGCMAATGSALNWLAKLLAPEAGEAAHAQLDALAAEVPAGADGLVCLPYFLGEKTPIHDPFASGTFTGLSLSHTRGHLWRALLEAVALAFRHHVAVLDDIGHAPQRFFASDGGTRSRVWMGIMADVLQRPVQLLANPLGSAVGAAWVAAIGGGDDLGWDDVTALVRTGEKITPDPAKAEVYDRLYRDFSALYATLHPFFHRSREGHHHHHH", "soluble on expression in E. coli": "soluble"}
{"sequence": "MSLAQLPSELLSLQLPLRIRIGDAQAFDLGPDPQVTMVIRDPTLLTEITHPSLDALGKAYVEKRLDIEGPISQVIGIGDALSEALGDPDGEASPVRESHDKATDAEAIHYHYDLSNDFYRLWLDPEMVYSCAYFETGREDLATAQLAKLRHLCRKLRLQPGEKLLDVGCGWGGLARLAAREFGVEVTGITLSKEQLALGQERVRAEGLEDRVTLKLLDYRDLPRDGRFDKVVSVGMFEHVGHANLGLYFQQLYDAVRPGGLVMNHGITSLYTDGRPVGKGAGDFIDRYVFPHGELPHLSLAVARMSEAGLEVVDVESLRLHYARTLDFWSANLEAKLKEAARLVPEETLRIWRLYLAGCAYGFKRGWINLHQILANRPHEDGSHELPWSRRDLYAEGHHHHHH", "soluble on expression in E. coli": "soluble"}
{"sequence": "MSLARCERLRGAALRDVLGRAQGVLFDCDGVLWNGERAVPGAPELLERLARAGKAALFVSNNSRRARPELALRFARLGFGGLRAEQLFSSALCAARLLRQRLPGPPDAPGAVFVLGGEGLRAELRAAGLRLAGDPSAGDGAAPRVRAVLVGYDEHFSFAKLREACAHLRDPECLLVATDRDPWHPLSDGSRTPGTGSLAAAVETASGRQALVVGKPSPYMFECITENFSIDPARTLMVGDRLETDILFGHRCGMTTVLTLTGVSRLEEAQAYLAAGQHDLVPHYYVESIADLTEGLEDEGHHHHHH", "soluble on expression in E. coli": "soluble"}
{"sequence": "MSLARRHELSIALILQDKFTIAAFSGFIDALRLAADDAAKSRQIRVAWKVFAQHRSPVMASCGLRVATEDGLPVPEDYDYIAICGGNSFADAAPAPQLAQLIQRAHRARVGLLGICTGSFAIARAGLIGDRRFCIHWNVAEPFKALFPRAQISVDRIFIDEGDVITCAGSTAAIDLALYLVMRHCGQDRAQQVMRHMMLSQMRPATMPQAHFYQLPPGDSHPRLRRALHFMEQQLDHPPSVGAIARYCGVSVRQLERIFLQALGQTPNAAFRQMRLNYGRYLLSAGTLPVTEIAHIAGFSDAAHFSREFRRAFHETPSAHRRARSHGPDEGHHHHHH", "soluble on expression in E. coli": "soluble"}
{"sequence": "MSLARSLNNQRSRLVALVVNAIGNPCEAEEQQLLVHRLQARQLLPIILCCADHSDRLQLMRLASTYQVDHVVVFSDMVSMQDAVDIFHTTKPIIVSFEPLENESVSSIRIDGAEAADEIIDKIVRDGKKRFAYLSGTNSSWIDKLRRKWFADALAKRGLAFEAQAFGDYSYDSGFKEAVLLLHRDKVDAIICGNDVMAIGARDAARRVLGKNTPDDIAIVGQDGIAMAAWDCNDLTTLSLDHVAFIDAVVELIERHDAEVEGPHSITLTCTARWGSEGHHHHHH", "soluble on expression in E. coli": "not soluble"}
